{"source": "patent US20260191937A1", "about": "“AGENTS, COMPOSITIONS AND METHODS FOR MODULATING IMMUNITY” (The University of Queensland, priority 2022, published 2026)", "biological_target": "T1, 6PGD (Mus musculus, UniProt Q9DCD0)", "T1 construct": "host or cells: HEK293", "T1 sequence (Q9DCD0 1-483)": "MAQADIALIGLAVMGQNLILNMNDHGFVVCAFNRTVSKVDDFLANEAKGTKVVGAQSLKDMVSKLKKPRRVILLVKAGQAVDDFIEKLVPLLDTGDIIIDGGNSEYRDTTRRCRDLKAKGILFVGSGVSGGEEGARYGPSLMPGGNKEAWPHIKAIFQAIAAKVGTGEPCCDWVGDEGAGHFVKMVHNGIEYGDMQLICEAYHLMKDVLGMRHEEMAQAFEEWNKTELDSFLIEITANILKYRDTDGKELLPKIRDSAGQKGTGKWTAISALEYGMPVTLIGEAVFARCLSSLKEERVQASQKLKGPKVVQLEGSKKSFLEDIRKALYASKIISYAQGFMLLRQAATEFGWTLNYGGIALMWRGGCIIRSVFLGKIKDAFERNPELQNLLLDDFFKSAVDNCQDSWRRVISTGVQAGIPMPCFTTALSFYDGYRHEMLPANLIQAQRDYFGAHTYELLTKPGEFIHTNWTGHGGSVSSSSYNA", "experiment": "6PGD enzyme activity in lysates of HEK293 cells co-transfected with 6PGD and HDAC7 constructs", "format": "biochemical", "conditions": "molar ratio 1:1 (6PGD:HDAC), 24 h after transfection", "experimental": "FIG. 19 is a graphical representation of HDAC7 increasing 6PGD enzyme activity in HEK293 cells. HEK293 cells were transfected with expression constructs encoding (A-B) 6PGD and/or HDAC7, (C-D) 6PGD and HDAC7 wild type (WT) or HDAC7 enzyme-dead (ED), (E-F) 6PGD and full-length (HDAC7), N-terminal HDAC7 (N-HDAC7) or C-terminal HDAC7 (C-HDAC7) at a molar ratio of 1:1 (6PGD:HDAC). After 24 h, cells were lysed and the enzymatic activity of 6PGD in lysates was measured. […] Statistical analysis was performed using repeated measure one-way ANOVA followed by Dunnett's multiple comparison (ns, not significant; * p<0.05; ** p<0.01). (B, D, F) Levels of 6PGD (Flag), HDAC7 (V5) and GAPDH expression in cell lysates were assessed via western blot.\n6PGD activity can be enhanced by co-delivering HDAC7. HEK293 cells were plated in 12-well plates and incubated overnight at 37° C. The Lipofectamine 2000 (Invitrogen) transfection reagent was prepared in OptiMEM to a final concentration of 1 μg DNA per μL and incubated at room temperature for 5 min. Plasmid DNA was diluted in OptiMEM (Gibco) and then mixed with Lipofectamine 2000, after which the transfection mixture was incubated at room temperature for 30 min. Prior to transfection, cell culture media was replaced with OptiMEM, after which the transfection mixture was added into cells. Cells were then incubated at 37° C. for 6-8 h before being supplemented with fresh OptiMEM. 24 h post-transfection, culture supernatants were discarded, and cells were briefly washed with DPBS and lysed for different analyses.\nMouse HDAC7 (the unspliced isoform lacking the first 22 amino acids), an enzyme-dead (ED) mutant HDAC7 carrying an H-to-A mutation (Das Gupta et al., 2020, Cell Rep. 30:2712-2728.e2718), N-terminal HDAC7 (N-HDAC7, amino acid 23-504, comprising a PHA03247 super family motif corresponding to the herpes simplex virus-1 UL36 large tegument protein, which is known to comprise deubiquitinating activity) and C-terminal HDAC7 (C-HDAC7, amino acid 498-938) were cloned in pEF6/V5-His-TOPO vectors. Mouse 6PGD was cloned in a pCMV expression vector (MG53165-CF, Sino Biologicals). HEK293 cells were transiently transfected with expression constructs encoding 6PGD and HDAC7 at a molar ratio of 1:1. 24 h after transfection, cells were lysed and lysates were subjected to 6PGD activity assays using an in vitro assay (Abcam), as per the manufacturer's instructions. The enzymatic activity was determined by measuring absorbance at 460 nm in kinetic mode using a plate reader (Infinite M Plex, Tecan).", "data": [{"molecule": "HDAC7: Mouse HDAC7 lacking the first 22 amino acids, SEQ ID NO:13, expression construct (protein, listed as Mus musculus) MDLRVGQRPTVEPPPEPALLTLQHPQRLHRHLFLAGLHQQQRSAEPMRLSMDPPMPELQGGQQEQELRQLLNKDKSKRSAVASSVVKQKLAEVILKKQQAALERTVHPSSPSIPYRTLEPLDTEGAARSVLSSFLPPVPSLPTEPPEHFPLRKTVSEPNLKLRYKPKKSLERRKNPLLRKESAPPSLRRRPAETLGDSSPSSSSTPASGCSSPNDSEHGPNPALGSEADGDRRTHSTLGPRGPVLGNPHAPLFLHHGLEPEAGGTLPSRLQPILLLDPSVSHAPLWTVPGLGPLPFHFAQPLLTTERLSGSGLHRPLNRTRSEPLPPSATASPLLAPLQPRQDRLKPHVQLIKPAISPPQRPAKPSEKPRLRQIPSAEDLETDGGGVGPMANDGLEHRESGRGPPEGRGSISLQQHQQVPPWEQQHLAGRLSQGSPGDSVLIPLAQVGHRPLSRTQSSPAAPVSMLSPEPTCQTQVLNSSETPATGLVYDSVMLKHQCSCGDNSKHPEHAGRIQSIWSRLQERGLRSQCECLRGRKASLEELQSVHSERHVLLYGTNPLSRLKLDNGKLTGLLAQRTFVMLPCGGVGVDTDTIWNELHSSNAARWAAGSVTDLAFKVASRELKNGFAVVRPPGHHADHSTAMGFCFFNSVAIACRQLQQHGKASKILIVDWDVHHGNGTQQTFYQDPSVLYISLHRHDDGNFFPGSGAVDEVGTGSGEGFNVNVAWAGGLDPPMGDPEYLAAFRIVVMPIAREFAPDLVLVSAGFDAAEGHPAPLGGYHVSAKCFGYMTQQLMNLAGGAVVLALEGGHDLTAICDASEACVAALLGNKVDPLSEESWKQKPNLSAIRSLEAVVRVHRKYWGCMQRLASCPDSWLPRVPGADAEVEAVTALASLSVGILAEDRPSERLVEEEEPMNL", "values": [{"measurement": "enzymatic activity of 6PGD relative to cells transfected with 6PGD alone", "value": "significantly increases 6PGD activity"}, {"measurement": "enzymatic activity of 6PGD relative to cells transfected with 6PGD alone", "setting": "listed as WT HDAC7", "value": "significantly increased the enzymatic activity of 6PGD to a similar level"}]}, {"molecule": "ED HDAC7: enzyme-dead mutant HDAC7 carrying an H-to-A mutation, SEQ ID NO:14 (protein) MDLRVGQRPTVEPPPEPALLTLQHPQRLHRHLFLAGLHQQQRSAEPMRLSMDPPMPELQGGQQEQELRQLLNKDKSKRSAVASSVVKQKLAEVILKKQQAALERTVHPSSPSIPYRTLEPLDTEGAARSVLSSFLPPVPSLPTEPPEHFPLRKTVSEPNLKLRYKPKKSLERRKNPLLRKESAPPSLRRRPAETLGDSSPSSSSTPASGCSSPNDSEHGPNPALGSEADGDRRTHSTLGPRGPVLGNPHAPLFLHHGLEPEAGGTLPSRLQPILLLDPSVSHAPLWTVPGLGPLPFHFAQPLLTTERLSGSGLHRPLNRTRSEPLPPSATASPLLAPLQPRQDRLKPHVQLIKPAISPPQRPAKPSEKPRLRQIPSAEDLETDGGGVGPMANDGLEHRESGRGPPEGRGSISLQQHQQVPPWEQQHLAGRLSQGSPGDSVLIPLAQVGHRPLSRTQSSPAAPVSMLSPEPTCQTQVLNSSETPATGLVYDSVMLKHQCSCGDNSKHPEHAGRIQSIWSRLQERGLRSQCECLRGRKASLEELQSVHSERHVLLYGTNPLSRLKLDNGKLTGLLAQRTFVMLPCGGVGVDTDTIWNELHSSNAARWAAGSVTDLAFKVASRELKNGFAVVRPPGHAADHSTAMGFCFFNSVAIACRQLQQHGKASKILIVDWDVHHGNGTQQTFYQDPSVLYISLHRHDDGNFFPGSGAVDEVGTGSGEGFNVNVAWAGGLDPPMGDPEYLAAFRIVVMPIAREFAPDLVLVSAGFDAAEGHPAPLGGYHVSAKCFGYMTQQLMNLAGGAVVLALEGGHDLTAICDASEACVAALLGNKVDPLSEESWKQKPNLSAIRSLEAVVRVHRKYWGCMQRLASCPDSWLPRVPGADAEVEAVTALASLSVGILAEDRPSERLVEEEEPMNL", "values": [{"measurement": "enzymatic activity of 6PGD relative to cells transfected with 6PGD alone", "value": "significantly increased the enzymatic activity of 6PGD to a similar level"}]}, {"molecule": "N-terminal domain of HDAC7: N-terminal HDAC7, amino acid 23-504, SEQ ID NO:15 (protein, listed as Mus musculus) MDLRVGQRPTVEPPPEPALLTLQHPQRLHRHLFLAGLHQQQRSAEPMRLSMDPPMPELQGGQQEQELRQLLNKDKSKRSAVASSVVKQKLAEVILKKQQAALERTVHPSSPSIPYRTLEPLDTEGAARSVLSSFLPPVPSLPTEPPEHFPLRKTVSEPNLKLRYKPKKSLERRKNPLLRKESAPPSLRRRPAETLGDSSPSSSSTPASGCSSPNDSEHGPNPALGSEADGDRRTHSTLGPRGPVLGNPHAPLFLHHGLEPEAGGTLPSRLQPILLLDPSVSHAPLWTVPGLGPLPFHFAQPLLTTERLSGSGLHRPLNRTRSEPLPPSATASPLLAPLQPRQDRLKPHVQLIKPAISPPQRPAKPSEKPRLRQIPSAEDLETDGGGVGPMANDGLEHRESGRGPPEGRGSISLQQHQQVPPWEQQHLAGRLSQGSPGDSVLIPLAQVGHRPLSRTQSSPAAPVSMLSPEPTCQTQVLNSSET", "values": [{"measurement": "enzymatic activity of 6PGD relative to cells transfected with 6PGD alone", "value": "increased the enzymatic activity of 6PGD to similar levels to that of the WT HDAC7"}]}, {"molecule": "C-terminal deacetylase domain of HDAC7: C-terminal HDAC7, amino acid 498-938, SEQ ID NO:23 (protein, listed as Mus musculus) MVLNSSETPATGLVYDSVMLKHQCSCGDNSKHPEHAGRIQSIWSRLQERGLRSQCECLRGRKASLEELQSVHSERHVLLYGTNPLSRLKLDNGKLTGLLAQRTFVMLPCGGVGVDTDTIWNELHSSNAARWAAGSVTDLAFKVASRELKNGFAVVRPPGHHADHSTAMGFCFFNSVAIACRQLQQHGKASKILIVDWDVHHGNGTQQTFYQDPSVLYISLHRHDDGNFFPGSGAVDEVGTGSGEGFNVNVAWAGGLDPPMGDPEYLAAFRIVVMPIAREFAPDLVLVSAGFDAAEGHPAPLGGYHVSAKCFGYMTQQLMNLAGGAVVLALEGGHDLTAICDASEACVAALLGNKVDPLSEESWKQKPNLSAIRSLEAVVRVHRKYWGCMQRLASCPDSWLPRVPGADAEVEAVTALASLSVGILAEDRPSERLVEEEEPMNL", "values": [{"measurement": "enzymatic activity of 6PGD relative to cells transfected with 6PGD alone", "value": "does not activate 6PGD"}]}]}
